The target of assay [1] is shed MICA002 polypeptide (human) (UniProt Q29983). As to the kind of experiment: capture ELISA (anti-hFc / antibody / shed antigen / biotin-6D4). In general terms: In an ELISA, binding on a coated surface is turned into a signal by an enzyme label.
Assay [2] concerns the target shed MICA004 polypeptide (human) (UniProt Q29983). Described as above.
Assay [3] has as its target shed MICA008 polypeptide (human) (UniProt Q29983). The description is as above.
Assay [4] has as its target shed MICB005 polypeptide (human) (UniProt Q29980). The description is as above.
Assay [5] concerns the target shed MICA002 polypeptide (human) (UniProt Q29983). The description is as above. This is another data set of the same source.
Assay [6] addresses shed MICA004 polypeptide (human) (UniProt Q29983). Described as above. The source holds these as a separate data set.
Assay [7] has as its target shed MICA008 polypeptide (human) (UniProt Q29983). The assay is described as above. This is another data set of the same source.
The target in assay [8] is shed MICB005 polypeptide (human) (UniProt Q29980). Described as above. This is another data set of the same source.
The target of assay [9] is shed MICA002 polypeptide (human) (UniProt Q29983). As to the kind of experiment: ELISA: antibody titrated on anti-hFc plate, shed MICA002 captured, detection NKG2D-His + anti-His-HRP.
Assay [10] has as its target shed MICA004 polypeptide (human) (UniProt Q29983). Description: ELISA: antibody titrated on anti-hFc plate, shed MICA004 captured, detection NKG2D-His + anti-His-HRP.

Like-named read-outs stand apart in the source and are kept apart here.

Here are results for eight molecules from US20250368742A1.

For orientation: EC50 means the concentration needed to bring the measured effect to its halfway point.

B1: #31 (antibody, V domains shown)
VH: EVQLQQSGPELVKPGASVKVSCKASGYAFTKYNIYWVKQSHGKSLEWIGYIDPYNGGTVQNQKFKGKATLTVDKSSSTAYMHLNSLTSEDSAVYYCATTDGYSLFTYWGQGTLVTVSS
VL: DIQMTQTTSSLSASLGDRVTISCRASQDIGNYLNWYQQKPDGTVKLLIYYTSRLHSGVPSRFSGSGSGTDYSLTISNLEQEDIATYFCQQGNTLPFTFGSGTKLEIK
As to B1, the EC50 in assay [1] turned out to be 0.13 µg/mL; in assay [2], 0.2 µg/mL; in assay [3], 0.26 µg/mL; in [4] it was 0.72 µg/mL. The Max OD450 was determined as 3.16 in assay [1], 1.72 in assay [2], 0.19 in assay [3] and 1.37 in assay [4].

B2: #34 (antibody, V domains shown)
VH: QVQLKQSGPELVKPGASVKVSCKASGYAFTKYNIYWVKQSHGKSLEWIGYIDPYNGGTVQNQKFKGKATLTVDKSSSTAYMHLNSLTSEDSAVYYCATTDGYSLFTYWGQGTLVTVSS
VL: DIVLTQSPTTMAASPGEKITITCSASSSISSNYLHWYQQKPGFSPKLLIYRTSNLASGVPARFSGSGSGTSYSLTIGTMEAEDVATYYCQQGSSIPFTFGSGTKLEIK
As to B2, the EC50 worked out at 0.34 µg/mL in assay [1], 0.46 µg/mL in assay [2], 0.3 µg/mL in [3] and 0.56 µg/mL in assay [4]. Besides, the Max OD450 in assay [1] was determined as 2.75; in assay [2] it was 1.23; in assay [3] it was 0.12; in [4], 0.17.

B3: #36 (antibody, V domains shown)
VH: QVQLQQSGPELVKPGASVKVSCKASGYAFTKYNIYWVKQSHGKSLEWIGYIDPYNGGTVYNQKFKGKATLTVDKSSSTAYMHLNSLTSEDSAVYYCATTDGYSLFTYWGQGTLVTVSA
VL: DIQMTQTTSSLSASLGDRVTISCRASQDISNYLNWYQQKPDGTVKLLIYYTSRLHSGVPSRFSGSGSGTDYSLTISNLEQEDIATYFCQQGNTLPFTFGSGTKLEIK
For B3, the EC50 in [1] was found to be 0.32 µg/mL; in assay [2], 0.47 µg/mL; in [3] it was 0.38 µg/mL; in assay [4], 0.84 µg/mL. The Max OD450 was 3 in [1], 1.31 in assay [2], 0.16 in assay [3] and 0.68 in [4].

B4: #40 (antibody, V domains shown)
VH: QVQLQQSGPELVKPGASVKVSCKASGYAFTKYNIYWVKQSHGKSLEWIGYIDPYNGGTVYNQKFKGKATLTVDKSSSTAYMHLNSLTSEDSAVYYCATTDGYSLFTYWGQGTLVTVSA
VL: DIQMTQTTSSLSASLGDRVTITCSAGQGINNYLNWYQQKPDGTVKLLIFYTSSLQSGVPSRFSGSGSGADYSLTISNLEPEDIATYYCQQYSKLPLTFGAGTKLELK
With B4, the EC50 in assay [1] is 0.31 µg/mL; in assay [2], 0.38 µg/mL; in assay [3], 0.44 µg/mL; in assay [4], 0.73 µg/mL. In addition, the Max OD450 in [1] was 2.89; in assay [2], 1.22; in [3], 0.13; in assay [4], 0.17.

B5: 13A9 (antibody, human IgG1, kappa, V domains shown)
VH: QVQLQQSGAELVRPGTSVKVSCKASGYAFTNYLIEWVKQRPGQGLEWIGAINPGSGATNYNEKFKDKARLTADKSSNTAYLQFSSLTSDDSAVYFCARFLGNYFDNWGQGATLTVSS
VL: DIQMTQSPASLSASVGETVTITCRASGNIHSYLAWYQQKQGKSPQLLVYYAETLADGVPSRFSGRGSGTQYSLKINSLQPEDFGSYFCQQFWTTPYTFGGGTKVEIKR
Take B5: the EC50 in assay [1] worked out at 0.14 µg/mL; in assay [2] it was 0.33 µg/mL; in assay [3] it was 0.22 µg/mL; in [4], 0.04 µg/mL; in [5], 0.176 µg/mL; in assay [6] it was 0.47 µg/mL. Moreover, the EC50 was found to be 0.191 µg/mL in assay [7], 0.088 µg/mL in assay [8], 0.06 µg/mL in [9] and 0.083 µg/mL in assay [10]. In addition, the Max OD450 in assay [1] was determined as 3.1; in [2], 0.89; in assay [3], 0.15; in [4], 2.91; in [5] it was 1.42; in [6], 0.35. Besides, the Max OD450 was determined as 0.48 in assay [7] and 1.28 in assay [8].

B6: #39 (antibody, V domains shown)
VH: QVQLQQSGAELVRPGTSVKVSCKASGYAFTDYLIEWVKQRPGQGLEWIGGINPGSGSTNYNEKFKGKAILTADKSSSTAYMQLSSLTSDDSAVYFCARLDGNYVGYWGQGTTLTVSS
VL: DILLTQSPASLSASVGETVTITCRASGNIHNYLAWYQQKQGKSPQLLVYHAKTLADGVPSRFSGSGSGTQYSLKINSLQPEDFGSYYCQHFWSTPWTFGGGTKLEIK
B6: the EC50 was 0.36 µg/mL in assay [1], 0.34 µg/mL in assay [2], 0.52 µg/mL in [3] and 0.1 µg/mL in assay [4]. For the same molecule, the Max OD450 in assay [1] worked out at 1.01; in assay [2], 0.11; in assay [3], 0.03; in assay [4], 2.86.

B7: 6E1.1.12 (antibody, human IgG1, kappa, V domains shown)
VH: QGQMQQSGAELVKPGASVKLSCKTSGFTFSDNYISWLKQKPGQSLEWIAWIYAGTGGSSYNQKFRDKAQLTVDTSSRTAYMQLSSLTTEDSAIYYCARHDYYGTSGAWFAYWGRGTLVTVSA
VL: DVLMTQTPLSLPVSLGDQASISCRSSQHIVHSNENTYLEWYLQKPGQSPKLLIYKVSNRFSGVPDRFSGSGSGTDFTLKISRVEAEDLGVYYCFQGSHVPWTFGGGTKVEIKR
As to B7, the EC50 in assay [1] was 0.22 µg/mL; in assay [2] it was 0.42 µg/mL; in assay [3], 0.22 µg/mL; in [4] it was 0.41 µg/mL. Further, the Max OD450 is 3.35 in assay [1], 1.13 in assay [2], 0.15 in [3] and 2.42 in assay [4].

B8: #38 (antibody, V domains shown)
VH: QVQLQQSGAELARPGASVKLSCKASGYTFSIHWMQWVKQRPGQGLEWIGAIYPGNGDTKYTQKFKGKATLTADKSSSTAYMQLSNLASEDSAVYYCATLYGNYEAYWGQGTLVTVSA
VL: DIVLTQSPASLSASVGETVTITCGASENIYGALNWYQRKQGKSPQLLIYGTTNLADGMSSRFSGSGSGRQYSLKISSLHPDDVATYYCQNVLTTPPWTFGGGTKLEIK
As to B8, the EC50 came out at 0.04 µg/mL in assay [1], 0.09 µg/mL in assay [2], 0.2 µg/mL in [3] and 0.02 µg/mL in [4]. Also, the Max OD450 stood at 3.32 in assay [1], 2.66 in [2], 0.16 in assay [3] and 2.97 in [4].
